Results from the Human Domainome abundance scans (Beltran et al. 2025).
± gives the uncertainty stated by the source.

B1: Tripartite motif-containing protein 6, residues 93 to 134; numbered along this chain, Q9C030 (parent)
chain: KAVLCADHGEKLQLFCQEDGKVICWLCERSQEHRGHHTFLVE

Variants of: B1
Assay: abundance fitness (aPCA) (normalised: wild type 0, dead -1); higher = more abundant; growth selection in yeast, the domain comes from the species named
Details: Homo sapiens

Variant | abundance fitness
KAVLCADHGEKLQLFCQEDGKVICWLTERSQEHRGHHTFLVE [C27T] | -0.882 ± 0.35
KAVLCADHGEKLQLFCQEDGKVICWLPERSQEHRGHHTFLVE [C27P] | -0.536 ± 0.35
KAVLCADHGEKLQLFCQEDGKVICWLVERSQEHRGHHTFLVE [C27V] | -1.32 ± 0.35
KAVLCADHGEKLQLFCQEDGKVICWLAERSQEHRGHHTFLVE [C27A] | -0.755 ± 0.1
KAVLCADHGEKLQLFCQEDGKVICWLEERSQEHRGHHTFLVE [C27E] | -0.863 ± 0.1
KAVLCADHGEKLQLFCQEDGKVICWLQERSQEHRGHHTFLVE [C27Q] | -0.969 ± 0.24
KAVLCADHGEKLQLFCQEDGKVICWLRERSQEHRGHHTFLVE [C27R] | -0.603 ± 0.079
KAVLCADHGEKLQLFCQEDGKVICWLLERSQEHRGHHTFLVE [C27L] | -0.8 ± 0.19
KAVLCADHGEKLQLFCQEDGKVICGLCERSQEHRGHHTFLVE [W25G] | -0.01 ± 0.041
KAVLCADHGEKLQLFCQEDGKVICCLCERSQEHRGHHTFLVE [W25C] | 0.026 ± 0.051
KAVLCADHGEKLQLFCQEDGKVICLLCERSQEHRGHHTFLVE [W25L] | -0.025 ± 0.041
KAVLCADHGEKLQLFCQEDGKVICILCERSQEHRGHHTFLVE [W25I] | -0.024 ± 0.12
KAVLCADHGEKLQLFCQEDGKVICELCERSQEHRGHHTFLVE [W25E] | 0.047 ± 0.048
KAVLCADHGEKLQLFCQEDGKVICMLCERSQEHRGHHTFLVE [W25M] | 0.135 ± 0.058
KAVLCADHGEKLQLFCQEDGKVICQLCERSQEHRGHHTFLVE [W25Q] | 0.12 ± 0.05
KAVLCADHGEKLQLFCQEDGKVICHLCERSQEHRGHHTFLVE [W25H] | 0.12 ± 0.056
KAVLCADHGEKLQLFCQEDGKVICALCERSQEHRGHHTFLVE [W25A] | 0.118 ± 0.044
KAVLCADHGEKLQLFCQEDGKVICDLCERSQEHRGHHTFLVE [W25D] | 0.067 ± 0.11
KAVLCADHGEKLQLFCQEDGKVICTLCERSQEHRGHHTFLVE [W25T] | 0.094 ± 0.052
KAVLCADHGEKLQLFCQEDGKVICFLCERSQEHRGHHTFLVE [W25F] | 0.023 ± 0.078

Variant | abundance fitness
KAVLCADHGEKLQLFCQEDGKVICRLCERSQEHRGHHTFLVE [W25R] | 0.173 ± 0.038
KAVLCADHGEKLQLFCQEDGKVICPLCERSQEHRGHHTFLVE [W25P] | -0.008 ± 0.074
KAVLCADHGEKLQLFCQEDGKVICKLCERSQEHRGHHTFLVE [W25K] | 0.211 ± 0.053
KAVLCADHGEKLQLFCQEDGKVICVLCERSQEHRGHHTFLVE [W25V] | -0.033 ± 0.042
KAVLCADHGEKLQLFCQEDGKVICNLCERSQEHRGHHTFLVE [W25N] | 0.11 ± 0.079
KAVLCADHGEKLQLFCQEDGKVICSLCERSQEHRGHHTFLVE [W25S] | 0.068 ± 0.053
KAVLCADHGEKLQLFCQEDGTVICWLCERSQEHRGHHTFLVE [K21T] | -0.183 ± 0.17
KAVLCADHGEKLQLFCQEDGMVICWLCERSQEHRGHHTFLVE [K21M] | -0.284 ± 0.087
KAVLCADHGEKLQLFCQEDGEVICWLCERSQEHRGHHTFLVE [K21E] | 0.047 ± 0.091
KAVLCADHGEKLQLFCQEDGAVICWLCERSQEHRGHHTFLVE [K21A] | -0.099 ± 0.078
KAVLCADHGEKLQLFCQEDGDVICWLCERSQEHRGHHTFLVE [K21D] | -0.29 ± 0.23
KAVLCADHGEKLQLFCQEDGQVICWLCERSQEHRGHHTFLVE [K21Q] | -0.358 ± 0.19
KAVLCADHGEKLQLFCQEDGFVICWLCERSQEHRGHHTFLVE [K21F] | -0.403 ± 0.26
KAVLCADHGEKLQLFCQEDGHVICWLCERSQEHRGHHTFLVE [K21H] | -0.136 ± 0.12
KAVLCADHGEKLQLFCQEDGNVICWLCERSQEHRGHHTFLVE [K21N] | -0.034 ± 0.16
KAVLCADHGEKLQLFCQEDGCVICWLCERSQEHRGHHTFLVE [K21C] | -0.402 ± 0.38
KAVLCADHGEKLQLFCQEDGVVICWLCERSQEHRGHHTFLVE [K21V] | 0.086 ± 0.065
KAVLCADHGEKLQLFCQEDGLVICWLCERSQEHRGHHTFLVE [K21L] | -0.283 ± 0.063
KAVLCADHGEKLQLFCQEDGRVICWLCERSQEHRGHHTFLVE [K21R] | 0.086 ± 0.055
KAVLCADHGEKLQLFCQEDGYVICWLCERSQEHRGHHTFLVE [K21Y] | -0.035 ± 0.09

Variant | abundance fitness
KAVLCADHGEKLQLFCQEDGWVICWLCERSQEHRGHHTFLVE [K21W] | -0.403 ± 0.079
KAVLCADHGEKLQLFCQEDGKVICWQCERSQEHRGHHTFLVE [L26Q] | 0.259 ± 0.11
KAVLCADHGEKLQLFCQEDGKVICWNCERSQEHRGHHTFLVE [L26N] | -0.057 ± 0.14
KAVLCADHGEKLQLFCQEDGKVICWSCERSQEHRGHHTFLVE [L26S] | -0.059 ± 0.091
KAVLCADHGEKLQLFCQEDGKVICWICERSQEHRGHHTFLVE [L26I] | -0.172 ± 0.13
KAVLCADHGEKLQLFCQEDGKVICWPCERSQEHRGHHTFLVE [L26P] | -0.186 ± 0.15
KAVLCADHGEKLQLFCQEDGKVICWGCERSQEHRGHHTFLVE [L26G] | -0.042 ± 0.058
KAVLCADHGEKLQLFCQEDGKVICWCCERSQEHRGHHTFLVE [L26C] | -0.155 ± 0.097
KAVLCADHGEKLQLFCQEDGKVICWFCERSQEHRGHHTFLVE [L26F] | -0.517 ± 0.19
KAVLCADHGEKLQLFCQEDGKVICWDCERSQEHRGHHTFLVE [L26D] | -0.05 ± 0.067
KAVLCADHGEKLQLFCQEDGKVICWTCERSQEHRGHHTFLVE [L26T] | -0.011 ± 0.094
KAVLCADHGEKLQLFCQEDGKVICWHCERSQEHRGHHTFLVE [L26H] | -0.079 ± 0.14
KAVLCADHGEKLQLFCQEDGKVICWRCERSQEHRGHHTFLVE [L26R] | 0.084 ± 0.067
KAVLCADHGEKLQLFCQEDGKVICWKCERSQEHRGHHTFLVE [L26K] | 0.104 ± 0.072
KAVLCADHGEKLQLFCQEDGKVICWVCERSQEHRGHHTFLVE [L26V] | -0.05 ± 0.056
KAVLCADHGEKLQLFCQEDGKVICWWCERSQEHRGHHTFLVE [L26W] | -0.169 ± 0.08
KAVLCADHGEKLQLFCQEDGKVICWMCERSQEHRGHHTFLVE [L26M] | 0.474 ± 0.15
KAVLCADHGEKLQLFCQEDGKVICWECERSQEHRGHHTFLVE [L26E] | 0.082 ± 0.34
KAVLCADHGEKLQLFCQEDGKVICWACERSQEHRGHHTFLVE [L26A] | -0.029 ± 0.066
KAVLCADHGEKLQLFCQEDGKVICWYCERSQEHRGHHTFLVE [L26Y] | -0.015 ± 0.078
